Tests used:
[1] = target: T1, Methanocaldococcus jannaschii Nop5 (Methanocaldococcus jannaschii, UniProt Q58105 1-414); assay: quantitative amino acid analysis
T1 sequence (looked up): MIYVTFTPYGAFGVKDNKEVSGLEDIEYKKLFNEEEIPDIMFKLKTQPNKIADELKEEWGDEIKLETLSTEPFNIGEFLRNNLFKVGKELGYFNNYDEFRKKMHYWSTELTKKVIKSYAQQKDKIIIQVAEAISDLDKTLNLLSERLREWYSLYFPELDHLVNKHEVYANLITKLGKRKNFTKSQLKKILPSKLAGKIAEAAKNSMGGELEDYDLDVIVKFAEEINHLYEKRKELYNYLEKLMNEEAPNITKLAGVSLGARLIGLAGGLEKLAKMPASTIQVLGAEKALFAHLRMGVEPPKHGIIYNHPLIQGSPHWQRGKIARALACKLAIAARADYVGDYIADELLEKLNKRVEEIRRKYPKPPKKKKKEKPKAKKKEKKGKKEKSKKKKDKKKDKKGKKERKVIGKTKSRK

Nop5mut2 (L143K, V217E) = target: T2, Nop5mut2 (L143K, V217E) (Methanocaldococcus jannaschii, UniProt Q58105 1-414, L143K | V217E); assay: co-sedimentation
T2 sequence (looked up): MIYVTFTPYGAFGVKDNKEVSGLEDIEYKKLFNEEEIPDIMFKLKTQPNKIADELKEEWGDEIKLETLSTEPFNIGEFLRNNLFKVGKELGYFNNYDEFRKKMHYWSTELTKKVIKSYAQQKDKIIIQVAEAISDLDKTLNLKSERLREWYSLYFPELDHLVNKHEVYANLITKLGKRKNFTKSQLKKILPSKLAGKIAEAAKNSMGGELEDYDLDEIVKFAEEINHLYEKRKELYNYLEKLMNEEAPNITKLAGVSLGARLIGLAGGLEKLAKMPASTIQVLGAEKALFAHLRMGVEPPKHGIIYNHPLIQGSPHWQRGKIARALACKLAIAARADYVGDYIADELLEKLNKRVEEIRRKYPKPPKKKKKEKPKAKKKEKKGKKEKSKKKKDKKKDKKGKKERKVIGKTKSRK

[2] = target: T3, Nop5mut4 (D135A, L143K, V217E, E224A) (Methanocaldococcus jannaschii, UniProt Q58105 1-414, D135A | L143K | V217E | E224A); assay: co-sedimentation
T3 sequence (looked up): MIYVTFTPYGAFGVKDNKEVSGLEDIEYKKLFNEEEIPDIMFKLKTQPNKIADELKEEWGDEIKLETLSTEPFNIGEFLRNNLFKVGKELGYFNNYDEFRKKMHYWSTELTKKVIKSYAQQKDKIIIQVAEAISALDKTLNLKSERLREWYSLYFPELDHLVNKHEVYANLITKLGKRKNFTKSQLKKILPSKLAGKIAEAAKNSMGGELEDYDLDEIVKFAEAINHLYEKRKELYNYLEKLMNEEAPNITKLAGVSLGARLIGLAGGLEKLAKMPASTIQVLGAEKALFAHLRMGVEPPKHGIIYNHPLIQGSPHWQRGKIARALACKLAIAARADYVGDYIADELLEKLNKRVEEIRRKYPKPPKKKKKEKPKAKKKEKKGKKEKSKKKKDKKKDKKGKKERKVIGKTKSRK

B1: Methanocaldococcus jannaschii fibrillarin (enzyme, UniProt Q58108 1-230, looked up)
chain: MEDIKIKEIFENIYEVDLGDGLKRIATKSIVKGKKVYDEKIIKIGDEEYRIWNPNKSKLAAAIIKGLKVMPIKRDSKILYLGASAGTTPSHVADIADKGIVYAIEYAPRIMRELLDACAERENIIPILGDANKPQEYANIVEKVDVIYEDVAQPNQAEILIKNAKWFLKKGGYGMIAIKARSIDVTKDPKEIFKEQKEILEAGGFKIVDEVDIEPFEKDHVMFVGIWEGK
[1]
  stoichiometry N: 1
Nop5mut2 (L143K, V217E)
  binding result: binds
[2]
  binding result: binds
